Test results from US20090136507A1 (published 2009).

Assays:
Test in all cases: yeast two-hybrid screens, LRP5 cytoplasmic domain bait against brain, HeLa and TE85 prey cDNA libraries
Zyxin (ZYX) = target: T1, Zyxin (ZYX) (Homo sapiens (Human), UniProt Q15942 2-572, limits assumed)
T1 construct: Yeast two-hybrid prey
T1 sequence: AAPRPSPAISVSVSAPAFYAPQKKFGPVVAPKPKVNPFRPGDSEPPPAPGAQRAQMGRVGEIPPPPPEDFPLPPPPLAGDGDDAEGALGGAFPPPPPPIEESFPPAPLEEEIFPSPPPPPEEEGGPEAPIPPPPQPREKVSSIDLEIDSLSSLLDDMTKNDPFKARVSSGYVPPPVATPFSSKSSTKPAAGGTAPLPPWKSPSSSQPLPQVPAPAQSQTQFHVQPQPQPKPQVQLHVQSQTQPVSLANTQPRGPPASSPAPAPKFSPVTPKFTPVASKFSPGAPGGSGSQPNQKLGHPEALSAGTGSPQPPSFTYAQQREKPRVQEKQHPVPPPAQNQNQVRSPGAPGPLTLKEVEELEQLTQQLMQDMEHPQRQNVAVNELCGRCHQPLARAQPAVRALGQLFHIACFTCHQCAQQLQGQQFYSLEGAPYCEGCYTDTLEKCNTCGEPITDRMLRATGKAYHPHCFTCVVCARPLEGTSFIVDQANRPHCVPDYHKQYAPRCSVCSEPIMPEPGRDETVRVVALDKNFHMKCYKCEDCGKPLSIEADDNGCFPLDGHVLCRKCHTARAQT
Text: (§1) In order to identify cytoplasmic Zmax1 (LRP5) signaling pathways, the cytoplasmic domain of Zmax1 (LRP5) was subcloned into two bait vectors. The first vector was pDBleu, which was used to screen a brain, and Hela prey cDNA library cloned into the vector pPC86 (Clontech). The second bait vector used was pDBtrp, which was used to screen a cDNA prey library derived from the TE85 osteosarcoma cell line in vector pOP46. Another suitable vector which is widely available, is p86 (Gibco, Iest™ System). Standard techniques known to those skilled in the art were used as described in Fields and Song, 1989 Nature 340: 245-246; U.S. Pat. No. 5,283,173 by Fields and Song; Johnston, 1987 Microbiol. Rev. 51: 458-476; Keegan et al., 1986 Science 231: 699-704; Durfee et al., 1993 Genes Dev. 7: 555-569; Chien et al., 1991 Proc. Natl. Acad. Sci. USA 88: 9578-9582; Fields et al., 1994 Trends in Genetics 10: 286-292; and Gyuris et al., 1993 Cell 75: 791-803. The bait construct and prey cDNA libraries were transformed into yeast using standard procedures.
(§2) The frozen prey library was thawed, and the yeast cells reactivated by growing them in 150 ml YEPD medium with 2% glucose for 2 hrs at 30° C. A filter unit was sterilized with 70% ethanol and washed with sterile water to remove the ethanol. The cell densities of both bait and prey cultures were measured by determining the OD at 600 nm. An appropriate volume of yeast cells that corresponded to a cell number of 1 ml of OD 600=4 of each yeast strain, bait and prey (library) was placed in a 50 ml Falcon tube. The mixture was then filtered through the sterilized filter unit. The filter was then transferred onto a prewarmed YEPD agar plate with the cell side up, removing all air bubbles underneath the filter. Plates were then incubated at 30° C. for 6 hrs. One filter was transferred into a 50 ml Falcon tube, and 10 ml of SD with 2% Glucose was added; cells were resuspended by vortexing for 10 sec. […]

alpha-actinin (ACTN1) = target: T2, alpha-actinin (ACTN1) (Homo sapiens (Human), UniProt P12814 1-892, limits assumed)
T2 construct: Yeast two-hybrid prey; also called α-actinin
Text: as §1, §2

Axin (AXIN) = target: T3, Axin (AXIN) (Homo sapiens (Human), UniProt O15169 1-862, limits assumed)
T3 construct: Yeast two-hybrid prey
Text: as §1, §2

Measured: binding result

T2 sequence (P12814 whole entry): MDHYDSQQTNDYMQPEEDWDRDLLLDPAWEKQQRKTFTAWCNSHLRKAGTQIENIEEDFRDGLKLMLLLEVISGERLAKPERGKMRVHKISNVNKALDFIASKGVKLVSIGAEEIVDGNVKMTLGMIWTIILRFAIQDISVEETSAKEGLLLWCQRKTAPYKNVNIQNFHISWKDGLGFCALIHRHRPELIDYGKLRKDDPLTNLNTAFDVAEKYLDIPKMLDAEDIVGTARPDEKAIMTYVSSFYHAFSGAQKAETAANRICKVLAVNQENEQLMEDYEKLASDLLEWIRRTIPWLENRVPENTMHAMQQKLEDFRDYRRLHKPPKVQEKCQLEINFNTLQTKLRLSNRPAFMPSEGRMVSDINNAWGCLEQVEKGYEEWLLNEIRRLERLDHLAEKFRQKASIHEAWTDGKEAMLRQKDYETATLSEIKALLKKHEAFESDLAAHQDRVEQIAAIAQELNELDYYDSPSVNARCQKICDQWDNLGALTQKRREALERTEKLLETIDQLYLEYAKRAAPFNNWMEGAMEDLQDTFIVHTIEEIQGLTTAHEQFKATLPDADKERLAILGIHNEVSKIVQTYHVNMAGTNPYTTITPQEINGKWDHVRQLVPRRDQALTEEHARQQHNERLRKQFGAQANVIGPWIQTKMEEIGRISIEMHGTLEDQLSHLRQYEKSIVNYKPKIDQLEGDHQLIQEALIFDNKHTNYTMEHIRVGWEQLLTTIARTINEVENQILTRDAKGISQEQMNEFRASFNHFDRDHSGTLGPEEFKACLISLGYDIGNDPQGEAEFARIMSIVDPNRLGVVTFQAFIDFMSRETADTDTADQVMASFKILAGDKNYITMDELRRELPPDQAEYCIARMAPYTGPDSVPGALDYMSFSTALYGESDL
T3 sequence (O15169 other isoform, or with tags, fused parts or gaps limits assumed): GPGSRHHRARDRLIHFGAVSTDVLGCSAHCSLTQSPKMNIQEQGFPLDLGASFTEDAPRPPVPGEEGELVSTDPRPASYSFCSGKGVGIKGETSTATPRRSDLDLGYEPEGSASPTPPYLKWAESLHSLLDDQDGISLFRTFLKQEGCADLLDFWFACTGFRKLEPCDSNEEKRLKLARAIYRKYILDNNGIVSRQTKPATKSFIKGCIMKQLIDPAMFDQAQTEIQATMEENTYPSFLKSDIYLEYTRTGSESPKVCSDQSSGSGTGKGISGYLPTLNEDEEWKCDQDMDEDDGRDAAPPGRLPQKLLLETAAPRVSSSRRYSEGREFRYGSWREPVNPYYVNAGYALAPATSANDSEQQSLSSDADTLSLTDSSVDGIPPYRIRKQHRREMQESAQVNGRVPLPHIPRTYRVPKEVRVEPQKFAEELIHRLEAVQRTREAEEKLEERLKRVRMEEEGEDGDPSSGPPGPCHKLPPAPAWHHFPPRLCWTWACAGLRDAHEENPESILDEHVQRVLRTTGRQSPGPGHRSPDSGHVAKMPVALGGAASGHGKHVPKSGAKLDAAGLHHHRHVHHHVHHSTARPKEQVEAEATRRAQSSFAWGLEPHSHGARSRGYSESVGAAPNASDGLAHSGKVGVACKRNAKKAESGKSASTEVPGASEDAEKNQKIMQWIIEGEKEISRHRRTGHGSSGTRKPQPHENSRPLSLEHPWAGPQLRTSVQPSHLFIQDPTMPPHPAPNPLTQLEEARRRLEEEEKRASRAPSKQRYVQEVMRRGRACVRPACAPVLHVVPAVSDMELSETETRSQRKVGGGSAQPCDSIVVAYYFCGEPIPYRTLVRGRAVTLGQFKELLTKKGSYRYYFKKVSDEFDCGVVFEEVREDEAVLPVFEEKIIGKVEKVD

B1: Zmax1 (LRP5) cytoplasmic domain bait (entire cytoplasmic domain and a portion of the transmembrane domain) (receptor)
chain: RVVCQRYAGANGPFPHEYVSGTPHVPLNFIAPGGSQHGPFTGIACGKSMMSSVSLMGGRGGVPLYDRNHVTGASSSSSSSTKATLYPPILNPPPSPATDPSLYNMDMFYSSNIPATVRPYRPYIIRGMAPPTTPCSTDVCDSDYSASRWKASKYYLDLNSDSDPYPPPPTPHSQYLSAEDSCPPSPATERSYFHLFPPPPSPCTDSS
notes: Yeast two-hybrid bait; also called cytoplasmic domain of Zmax1 (LRP5); cytoplasmic domain of LRP5
binds: Zyxin (ZYX) | alpha-actinin (ACTN1) | Axin (AXIN)
